# Reference: patent US20050053990
# Legend:
# Experiment in all cases: cleavage_in_vitro
# [1] = test system: BtsI; details: DNA strand 100% cleaved
# [2] = test system: AvaII; details: DNA strand 100% cleaved; NEBuffer 4 (Mg2+), 37 C, 4 h; Table 1 does not name the oligos
# [3] = test system: Sau3AI; details: DNA strand 0% cleaved
# [4] = test system: SfaNI; details: DNA strand 100% cleaved
# [5] = test system: Cac8I; details: DNA strand 100% cleaved; NEBuffer 3, 37 C, 4 h; Table 1 does not name the oligos
substance,measurement,setting,value
BtsI site RNA/DNA duplex,activity (% RNA strand cleaved),[1],70
AAAGCUAAGCGGACCGAGUCGACUGCAUCGUCAUGAAAAAA / TTTTTTCATGACGATGCAGTCGACTCGGTCCGCTTAGCTTT [A/B RNA/DNA duplex],activity (% RNA strand cleaved),[2],100
Sau3AI site RNA/DNA duplex,activity (% RNA strand cleaved),[3],80
SfaNI site RNA/DNA duplex,activity (% RNA strand cleaved),[4],100
UAAAGGCGCGCCCGCAUGCUUUA / TAAAGCATGCGGGCGCGCCTTTA [I/L RNA/DNA duplex],activity (% RNA strand cleaved),[5],100
